Assay results published in patent publication US20150031748A1 (AGENCY FOR SCIENCE TECHNOLOGY AND RESEARCH, published 2015).
One block for each binder: values may come before it.

Legend:
[1] = target: T1, GST-ZO-2SGA (canine ZO-2 amino acids 575-947 in pGEX-6P-1) (Canis lupus familiaris, UniProt Q95168 575-947); assay: GST binding assay with GFP-Slug MDCK lysate, anti-Slug blot
T1 construct: also called GST-ZO2 SGA WT
T1 sequence: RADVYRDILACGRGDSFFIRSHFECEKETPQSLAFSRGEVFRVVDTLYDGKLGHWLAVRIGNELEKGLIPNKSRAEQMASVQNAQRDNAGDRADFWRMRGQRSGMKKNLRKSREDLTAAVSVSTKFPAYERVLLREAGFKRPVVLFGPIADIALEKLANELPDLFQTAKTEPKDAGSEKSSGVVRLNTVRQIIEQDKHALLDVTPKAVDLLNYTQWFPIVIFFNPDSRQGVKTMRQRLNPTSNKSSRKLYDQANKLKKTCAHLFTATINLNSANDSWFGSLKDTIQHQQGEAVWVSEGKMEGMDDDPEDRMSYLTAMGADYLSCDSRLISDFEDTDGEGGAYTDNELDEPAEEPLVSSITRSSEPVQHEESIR

[2] = target: T2, human ZO-1 SGA domain (amino acids 490-883) in bait vector pGBKT7 (human, UniProt P04386 1-147; Q07157 490-883); assay: yeast two-hybrid, QDO growth and beta-galactosidase activity
T2 construct: Yeast two-hybrid bait
Description: (§1) All experimental details were according to the manufacturer's protocols. Clones were screened at high stringency with a quadruple (-Trp, -Leu, -His, -Ade) dropout media and then tested for α- and β-galactosidase activity. Library plasmids with the cDNA inserts from positive clones were isolated and sequenced, resulting in the identification of the entire Slug cDNA. The interaction was retested by transforming this Slug cDNA plasmid with bait vectors carrying the human ZO-1 SGA domain (amino acids 490-883), the canine ZO-2 SGA (amino acids 575-945), SH3 (amino acids 575-713), as well as the GA domain (amino acids 714-945) or the canine ZO-3 […] domain (amino acids 450-899). Empty pGBKT7 and a bait plasmid with […] cDNA (Clontech) were used as negative controls.
(§2) The interaction was retested by transforming this Slug cDNA plasmid with bait vectors carrying the human ZO-1SGA domain (amino acids 490-883), the canine ZO-2SGA (amino acids 575-945), SH3 (amino acids 575-713), GA domain (amino acids 714-945), as well as the canine ZO-3SGA domain (amino acids 450-899). Interactions were determined by monitoring the growth of the co-transformed yeasts in on selective media & β-galactosidase activity. […]

[3] = target: T3, canine ZO-3 SGA domain (amino acids 450-899) in bait vector pGBKT7 (canine, UniProt P04386 1-147; O62683 450-898); assay: as above
T3 construct: Yeast two-hybrid bait; also called canine ZO-3 SGC domain
Description: as §1, §2

[4] = target: T4, MYC tagged GA domain of canine ZO-3 (amino acids 606-899), in vitro translated (canine, UniProt O62683 606-898); assay: GST pull-down of in vitro translated MYC-tagged GA domain, anti-myc blot
T4 construct: range 606-899; also called MYC-ZO-3GA; ZO-3GA; not shown: MYC tag from pGBKT7
T4 sequence (looked up): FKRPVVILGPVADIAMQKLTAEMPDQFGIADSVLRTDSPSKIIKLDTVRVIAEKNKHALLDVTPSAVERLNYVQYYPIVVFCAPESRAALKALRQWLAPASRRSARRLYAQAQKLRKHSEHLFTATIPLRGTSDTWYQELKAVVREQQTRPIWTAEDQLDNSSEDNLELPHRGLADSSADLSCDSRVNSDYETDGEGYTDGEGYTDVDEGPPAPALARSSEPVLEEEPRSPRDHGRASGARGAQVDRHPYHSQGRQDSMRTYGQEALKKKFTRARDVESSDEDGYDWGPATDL

[5] = target: T5, HA-Slug (full length mouse Slug in pDHA, two HA tags) (Mus musculus, UniProt P97469 1-269, 35S-methionine labelled in Example 5); assay: GST pull-down of 35S-labeled in vitro translated protein, autoradiography
T5 construct: also called pDHA-Slug; HA tagged Slug; not shown: the two HA tags of the pDHA vector and any vector linker
T5 sequence: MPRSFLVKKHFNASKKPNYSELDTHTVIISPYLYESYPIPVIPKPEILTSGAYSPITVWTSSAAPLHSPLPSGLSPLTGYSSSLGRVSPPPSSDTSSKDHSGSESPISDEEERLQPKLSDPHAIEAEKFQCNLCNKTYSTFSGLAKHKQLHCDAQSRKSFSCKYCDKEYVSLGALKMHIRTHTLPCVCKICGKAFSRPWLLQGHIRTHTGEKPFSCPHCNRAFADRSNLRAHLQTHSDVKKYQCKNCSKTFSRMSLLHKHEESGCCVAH
Experimental: In vitro translation was carried out using Quick Coupled T7 TNT System (Promega, Madson, Wis.) according to the manufacturers protocol. Slug, EX and ZNF cloned into the pDHA vector were in vitro translated and labeled with 35S Methionine. GST, GST-ZO-2 SGA, GST-ZO-2 SH3, GST-20-2 GA, GST-ZO-2 AP and GST-ZO-2 P were produced, purified as described above and were bound to glutathione Sepharose-4B (Amersham Biosciences, Piscataway, N.J., USA) following standard protocols.
Purified GST-fusion proteins were quantified by SDS-PAGE by comparing with known amounts of BSA as standards. 20 μl bed volume of beads carrying 20 μg of GST or the above GST fused ZO-2 truncated proteins were incubated with 10 μl of in vitro translated 35S Methionine labeled, HA tagged Slug, EX or ZNF and topped up with 200 μl of buffer B (PBS with 1% TX-100 PBS, 1 mM EDTA, Complete EDTA free protease inhibitor cocktail (Roche Diagnostics, Indianapolis, Ind.), 1 mM dithiothreitol (DTT), 300 μg/ml Benzamiidine) for 3 h at 4° C. The beads were washed three times with 500 μl of buffer B each time. This was followed by suspension in 30 μl of SDS sample buffer and the analysis of the bound proteins by running through a 15% SDS-PAGE gel and autoradiography, with a 2 to 3 day exposure period. To reciprocate the binding, GST, GST-Slug and GST-ZNF were used as baits. […]

binding result [1]: binds
B1: GFP-Slug (full length mouse Slug in pEGFP, stably expressed in MDCK cells) (other)
chain: MPRSFLVKKHFNASKKPNYSELDTHTVIISPYLYESYPIPVIPKPEILTSGAYSPITVWTSSAAPLHSPLPSGLSPLTGYSSSLGRVSPPPSSDTSSKDHSGSESPISDEEERLQPKLSDPHAIEAEKFQCNLCNKTYSTFSGLAKHKQLHCDAQSRKSFSCKYCDKEYVSLGALKMHIRTHTLPCVCKICGKAFSRPWLLQGHIRTHTGEKPFSCPHCNRAFADRSNLRAHLQTHSDVKKYQCKNCSKTFSRMSLLHKHEESGCCVAH
notes: not shown: EGFP of the pEGFP vector and its linker to Slug

binding result [2]: no binding | binding result [3]: no binding
B2: full-length mouse Slug fused to the GAL4 transactivator domain (library clone 30A) (other, not shown: small tags and cut ends)
chain: MPRSFLVKKHFNASKKPNYSELDTHTVIISPYLYESYPIPVIPKPEILTSGAYSPITVWTSSAAPLHSPLPSGLSPLTGYSSSLGRVSPPPSSDTSSKDHSGSESPISDEEERLQPKLSDPHAIEAEKFQCNLCNKTYSTFSGLAKHKQLHCDAQSRKSFSCKYCDKEYVSLGALKMHIRTHTLPCVCKICGKAFSRPWLLQGHIRTHTGEKPFSCPHCNRAFADRSNLRAHLQTHSDVKKYQCKNCSKTFSRMSLLHKHEESGCCVAH
notes: Yeast two-hybrid prey, full length; also called pGADT7-Slug

binding result [4]: no binding
B3: GST-Slug (full length mouse Slug in pGEX4T-1) (other)
chain: MPRSFLVKKHFNASKKPNYSELDTHTVIISPYLYESYPIPVIPKPEILTSGAYSPITVWTSSAAPLHSPLPSGLSPLTGYSSSLGRVSPPPSSDTSSKDHSGSESPISDEEERLQPKLSDPHAIEAEKFQCNLCNKTYSTFSGLAKHKQLHCDAQSRKSFSCKYCDKEYVSLGALKMHIRTHTLPCVCKICGKAFSRPWLLQGHIRTHTGEKPFSCPHCNRAFADRSNLRAHLQTHSDVKKYQCKNCSKTFSRMSLLHKHEESGCCVAH
notes: Full length Slug; not shown: GST and the protease-site linker encoded by pGEX4T-1

binding result [5]: no binding
B4: GST-ZO-2P (proline rich domain, canine ZO-2 amino acids 948-1174 in pGEX-6P-1) (other)
chain: KPSPEPRAQMRRAASRDQLRDSSPPPAFKPEPPKAKTQNREESFDISRSHDYKSNPSAVAGNEVSGASTRSCPPPIAAKPSFGRSILKPSTPVPSPESEEVGEGSEEQEGAPKSVLGKVKIFEKMDHKARLQRMQELQEAQNARIEIAQKHPDIYAVPIKTHKPDPGLSQHTSSRPPEPQKGPSRLYQDPRGSYGSDAEEEEYRQQLSEHSKRGYYSQPSRYRDTEL
notes: also called the P; not shown: GST of pGEX-6P-1 and its linker (PreScission site, cloning-site residues)
